{"source": "patent US12649778", "binders": {"B1": {"name": "65D3 mutant IgG variant 2 (S55W-VH + S57T-VL) (antibody)", "heavy": "QSLEESGGRLVTPGGSLTLTCTVSGFSLSTHDISWVRQAPGKGLEWIGVIARRGWTYYASWAKGRFTISKTSTTVDLKITSPTIEDTATYFCAREEFDFWGQGTLVTVSSGQPKAPSVFPLAPCCGDTPSSTVTLGCLVKGYLPEPVTVTWNSGTLTNGVRTFPSVRQSSGLYSLSSVVSVTSSSQPVTCNVAHPATNTKVDKTVAPSTCSKPTCPPPELLGGPSVFIFPPKPKDTLMISRTPEVTCVVVDVSQDDPEVQFTWYINNEQVRTARPPLREQQFNSTIRVVSTLPIAHQDWLRGKEFKCKVHNKALPAPIEKTISKARGQPLEPKVYTMGPPREELSSRSVSLTCMINGFYPSDISVEWEKNGKAEDNYKTTPAVLDSDGSYFLYSKLSVPTSEWQRGDVFTCSVMHEALHNHYTQKSISRSPGK", "light": "AVLTQTASPVSAAVGGTVTISCQSSQSVYNNKELSWFQQKPGQPPKLLISYASTLATGVPSRFKGSGSGTQFTLTISDLECDDAATYYCLGGYASTIDMWAFGGGTEVVVKGDPVAPTVLIFPPAADQVATGTVTIVCVANKYFPDVTVTWEVDGTTQTTGIENSKTPQNSADCTYNLSSTLTLTSTQYNSHKEYTCKVTQGTTSVVQSFNRGDC"}}, "target": "Peptide 1593 (…) (Mycobacterium tuberculosis)", "assay": "SPR (Biacore), IgG amine-coupled, peptide as analyte", "data": [{"binder": "B1", "values": [{"measurement": "Kd", "value": 3.27, "unit": "nM"}, {"measurement": "koff", "value": 0.000393, "unit": "s⁻¹"}, {"measurement": "kon", "value": 120000, "unit": "M⁻¹ s⁻¹"}]}]}
